{"source": "patent US20220308056", "target": "recombinant SARS-Cov-2 nucleocapsid protein (NP2), P0DTC9"}
{"protein": "recombinant MASP-2 (rMASP-2) of Example 23 (protein) TPLGPKWPEPVFGRLASPGFPGEYANDQERRWTLTAPPGYRLRLYFTHFDLELSHLCEYDFVKLSSGAKVLATLCGQESTDTERAPGKDTFYSLGSSLDITFRSDYSNEKPFTGFEAFYAAEDIDECQVAPGEAPTCDHHCHNHLGGFYCSCRAGYVLHRNKRTCSALCSGQVFTQRSGELSSPEYPRPYPKLSSCTYSISLEEGFSVILDFVESFDVETHPETLCPYDFLKIQTDREEHGPFCGKTLPHRIETKSNTVTITFVTDESGDHTGWKIHYTSTAQPCPYPMAPPNGHVSPVQAKYILKDSFSIFCETGYELLQGHLPLKSFTAVCQKDGSWDRPMPACSIVDCGPPDDLPSGRVEYITGPGVTTYKAVIQYSCEETFYTMKVNDGKYVCEADGFWTSSKGEKSLPVCEPVCGLSARTTGGRIYGGQKAKPGDFPWQVLILGGTTAAGALLYDNWVLTAAHAVYEQKHDASALDIRMGTLKRLSPHYTQAWSEAVFIHEGYTHDAGFDNDIALIKLNNKVVINSNITPICLPRKEAESFMRTDDIGTASGWGLTQRGFLARNLMYVDIPIVDHQKCTAAYEKPPYPRGSVTANMLCAGLESGGKDSCRGDSGGALVFLDSETERWFVGGIVSWGSMNCGEAGQYGVYTKVINYIPWIENIISDF", "values": [{"measurement": "C4 cleavage on NP2-coated wells (SDS-PAGE Western blot)", "value": "a new band corresponding to C4′α"}]}
